Results published in patent US20140163217A1, “PROCESS FOR THE ESTERIFICATION OF HYALURONIC ACID WITH HYDROPHOBIC ORGANIC COMPOUNDS” (UNIVERSITE DE GENEVE, priority 2010, published 2014).

Tests used:
Type in all cases: physicochemical
[1] = Solubility of the product in water; details: product of small scale reaction (0.5 g), 2% diacerhein functionalization
Description: 0.044 g Diacerhein were suspended into 20 mL dry THF, followed by addition of 0.022 g CDI dissolved in 2 mL THF. The reaction mixture was stirred for 1 hour at room temperature until a clear solution was obtained. 0.5 g cryo-micronized HA powder were added and the suspension stirred at 70° C. for 24 hours. The reaction mixture was then filtered through a G4-fritte and washed with 150 mL dry THF. The non-soluble remaining HA product was slightly yellowish. By redissolving the product in water small amounts of remaining dispersed diacerhein could be removed by centrifugation to yield a visually clear and transparent aqueous solution.
The obtained product was analyzed by H^1-NMR-, HPLC-, UV- and LC-MS/MS-analyses, and the following results were obtained. The reaction resulted a 100% yield of HA-polymer, close to its original molecular weight with a 2% diacerhein-fimctionalization. No significant degradation of HA in the final product could be observed. […] For further qualitative characterization the HA-diacerhein product was enzymatically hydrolysed, which lead to HA-fragments (oligomers) with and without diacerhein, which could be analysed by HPLC analysis. Furthermore HA-fragments with and without diacerhein attached were identified by LC-MS/MS.

[2] = Solution appearance of a 1% (weight/weight) solution in MilliQ water; details: approx. 10 mg freeze-dried compound in 1 ml MilliQ water, after storage or centrifugation at 14'000 rpm for 10 min
Description: A 1% (weight/weight) solution was obtained by dissolving approximately 10 mg of freeze-dried compound into 1 ml of pure MilliQ water.

[3] = pH determination of the 1% solution; details: 1% (weight/weight) solution in MilliQ water; Metrohm 691 pH-Meter, Biotrode glass electrode
Description: pH of the above described 1% solution was determined to be 5.5 (Metrohm 691 ph-Meter operated with a Biotrode glass electrode; according to specifications received for the initial hyaluronic acid provided by TRB, pH of a 0.5% solution should be between 5.0 and 8.5).

Row | Substance | solubility in water [1] | solution appearance / precipitation [2] | pH of 1% solution [3]
1 | HA-Diacerhein [Example 1] | soluble in water |  | 
2 | HA-Diacerhein [Example 2] |  | no precipitation occurred | 5.5
